Test results from paper PMC7083883, “The cryo-EM structure of the SNX–BAR Mvp1 tetramer” (Nature Communications, 2020).

T1: Mvp1 (Saccharomyces cerevisiae, UniProt P40959)
T1 construct: full-length, codons 1-511; E. coli; N-terminal His6-thrombin fusion or C-terminal MBP fusion cut off with PreScission; tetramer
T1 sequence (P40959 1-511): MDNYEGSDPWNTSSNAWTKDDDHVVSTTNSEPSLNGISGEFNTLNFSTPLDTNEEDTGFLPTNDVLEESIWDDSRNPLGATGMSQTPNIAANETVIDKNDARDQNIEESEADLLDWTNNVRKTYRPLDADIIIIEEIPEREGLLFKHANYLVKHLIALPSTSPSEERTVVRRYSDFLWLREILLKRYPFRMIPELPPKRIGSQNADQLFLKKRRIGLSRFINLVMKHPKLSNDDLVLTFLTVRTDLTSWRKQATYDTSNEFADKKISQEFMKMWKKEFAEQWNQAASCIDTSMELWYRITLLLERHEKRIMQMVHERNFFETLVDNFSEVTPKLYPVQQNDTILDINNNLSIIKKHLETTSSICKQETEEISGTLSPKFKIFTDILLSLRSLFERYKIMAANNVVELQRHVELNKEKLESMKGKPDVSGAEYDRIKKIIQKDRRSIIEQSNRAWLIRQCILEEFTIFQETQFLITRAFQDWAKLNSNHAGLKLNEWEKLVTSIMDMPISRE


Tests used:
[1] = biological target: Mvp1 with an engineered PreScission site after residue 99, after cleavage (N-terminal sequence removed) (S. cerevisiae) (UniProt P40959); assay: SEC-MALS; Superdex 200 10/300 GL, 20 mM TRIS/Cl pH 7.4, 250 mM NaCl unless stated (full-length Mvp1 also at 50 and 150 mM NaCl), 1.93 mM beta-mercaptoethanol; 500 ul of 20-21.2 uM protein injected (14 uM for Mvp1 Δ2-78); 0.3 ml/min
[2] = biological target: T1, Mvp1; assay: liposome sedimentation, SDS-PAGE; assay type: binding; conditions: 5% PI3P in 95% DOPS liposomes (100 nm, 0.1 mg/ml); 1.2 µM protein; 20 mM Tris pH 7.5, 250 mM NaCl; 21 °C; DOPS-only liposomes as control
[3] = biological target: the molecule itself; assay: SEC-MALS; Superdex 200 10/300 GL, 20 mM TRIS/Cl pH 7.4, 250 mM NaCl unless stated (full-length Mvp1 also at 50 and 150 mM NaCl), 1.93 mM beta-mercaptoethanol; 500 ul of 20-21.2 uM protein injected (14 uM for Mvp1 Δ2-78); 0.3 ml/min
[4] = biological target: the molecule itself; assay: cryo-EM structure; 2d and 3d classification of single particles of Mvp1 Mut1, ~5 uM protein, intermediate resolution (~7.7-8.2 Å)

Molecule | stoichiometry N [3] | also measured
Mvp1 with an engineered PreScission site after residue 99, after cleavage (N-terminal sequence removed) (from UniProt P40959 100-511) (domain or fragment) |  | stoichiometry N [1]: 2
CCCCCCCC/C=C\CCCCCCCC(=O)OC[C@H](COP(=O)(O)O[C@@H]1[C@H](O)[C@H](OP(=O)(O)O)[C@@H](O)[C@H](O)[C@H]1O)OC(=O)CCCCCCC/C=C\CCCCCCCC [PI3P] |  | liposome sedimentation, SDS-PAGE [2]: purified Mvp1, like SNX8 and several other SNX–BARs, bound to liposomes containing PI3P
Mvp1 Δ2-78 (domain or fragment, S. cerevisiae, UniProt P40959 1-511, looked up, source: E. coli BL21-Codon Plus(DE3)-RIPL, purified; not shown: His6 (pET-15b construct); MBP (pMW-variant construct; alternative to the His6 construct), C-terminal, cleaved) MGATGMSQTPNIAANETVIDKNDARDQNIEESEADLLDWTNNVRKTYRPLDADIIIIEEIPEREGLLFKHANYLVKHLIALPSTSPSEERTVVRRYSDFLWLREILLKRYPFRMIPELPPKRIGSQNADQLFLKKRRIGLSRFINLVMKHPKLSNDDLVLTFLTVRTDLTSWRKQATYDTSNEFADKKISQEFMKMWKKEFAEQWNQAASCIDTSMELWYRITLLLERHEKRIMQMVHERNFFETLVDNFSEVTPKLYPVQQNDTILDINNNLSIIKKHLETTSSICKQETEEISGTLSPKFKIFTDILLSLRSLFERYKIMAANNVVELQRHVELNKEKLESMKGKPDVSGAEYDRIKKIIQKDRRSIIEQSNRAWLIRQCILEEFTIFQETQFLITRAFQDWAKLNSNHAGLKLNEWEKLVTSIMDMPISRE | 2 | 
Full-length Mvp1 (codons 1-511) (natural protein, S. cerevisiae, UniProt P40959 1-511, looked up, Mvp1, S. cerevisiae sorting nexin with PX and BAR domains, codons 1-511, amplified from genomic DNA of W303A/alpha diploids; Two purification strategies: N-terminal His6 fusion with thrombin site (no cleavage described) or C-terminal MBP fusion cleaved with PreScission; also called wild type; SNX-BAR Mvp1; source: E. coli BL21-Codon Plus(DE3)-RIPL, purified (Ni-IDA or amylose resin, anion …)) MDNYEGSDPWNTSSNAWTKDDDHVVSTTNSEPSLNGISGEFNTLNFSTPLDTNEEDTGFLPTNDVLEESIWDDSRNPLGATGMSQTPNIAANETVIDKNDARDQNIEESEADLLDWTNNVRKTYRPLDADIIIIEEIPEREGLLFKHANYLVKHLIALPSTSPSEERTVVRRYSDFLWLREILLKRYPFRMIPELPPKRIGSQNADQLFLKKRRIGLSRFINLVMKHPKLSNDDLVLTFLTVRTDLTSWRKQATYDTSNEFADKKISQEFMKMWKKEFAEQWNQAASCIDTSMELWYRITLLLERHEKRIMQMVHERNFFETLVDNFSEVTPKLYPVQQNDTILDINNNLSIIKKHLETTSSICKQETEEISGTLSPKFKIFTDILLSLRSLFERYKIMAANNVVELQRHVELNKEKLESMKGKPDVSGAEYDRIKKIIQKDRRSIIEQSNRAWLIRQCILEEFTIFQETQFLITRAFQDWAKLNSNHAGLKLNEWEKLVTSIMDMPISRE | 4 | 
Mvp1 198KRI→AAA (natural protein, S. cerevisiae, UniProt P40959 1-511, looked up, Mvp1, S. cerevisiae, codons 1-511 with residues 198-200 KRI changed to AAA in the PX PPII loop; also called Mut1; Mvp1 Mut1; source: E. coli BL21-Codon Plus(DE3)-RIPL, purified; not shown: His6 (pET-15b construct); MBP (pMW-variant construct; alternative to the His6 construct), C-terminal, cleaved) MDNYEGSDPWNTSSNAWTKDDDHVVSTTNSEPSLNGISGEFNTLNFSTPLDTNEEDTGFLPTNDVLEESIWDDSRNPLGATGMSQTPNIAANETVIDKNDARDQNIEESEADLLDWTNNVRKTYRPLDADIIIIEEIPEREGLLFKHANYLVKHLIALPSTSPSEERTVVRRYSDFLWLREILLKRYPFRMIPELPPAAAGSQNADQLFLKKRRIGLSRFINLVMKHPKLSNDDLVLTFLTVRTDLTSWRKQATYDTSNEFADKKISQEFMKMWKKEFAEQWNQAASCIDTSMELWYRITLLLERHEKRIMQMVHERNFFETLVDNFSEVTPKLYPVQQNDTILDINNNLSIIKKHLETTSSICKQETEEISGTLSPKFKIFTDILLSLRSLFERYKIMAANNVVELQRHVELNKEKLESMKGKPDVSGAEYDRIKKIIQKDRRSIIEQSNRAWLIRQCILEEFTIFQETQFLITRAFQDWAKLNSNHAGLKLNEWEKLVTSIMDMPISRE |  | stoichiometry N [4]: 2
Mvp1 Δ2-100 (domain or fragment, S. cerevisiae, UniProt P40959 1-511, looked up, Mvp1, S. cerevisiae, codons 1-511 lacking residues 2-100; The purification told for this construct is that of the C-terminal MBP fusion, cleaved with PreScission; residues of the cleavage site probably remain at the C-terminus (surmised); also called Mvp1 lacking its N-terminus; source: E. coli BL21-Codon Plus(DE3)-RIPL, purified (amylose resin, anion exchange, SEC, PreScission cleavage, Superdex …)) MARDQNIEESEADLLDWTNNVRKTYRPLDADIIIIEEIPEREGLLFKHANYLVKHLIALPSTSPSEERTVVRRYSDFLWLREILLKRYPFRMIPELPPKRIGSQNADQLFLKKRRIGLSRFINLVMKHPKLSNDDLVLTFLTVRTDLTSWRKQATYDTSNEFADKKISQEFMKMWKKEFAEQWNQAASCIDTSMELWYRITLLLERHEKRIMQMVHERNFFETLVDNFSEVTPKLYPVQQNDTILDINNNLSIIKKHLETTSSICKQETEEISGTLSPKFKIFTDILLSLRSLFERYKIMAANNVVELQRHVELNKEKLESMKGKPDVSGAEYDRIKKIIQKDRRSIIEQSNRAWLIRQCILEEFTIFQETQFLITRAFQDWAKLNSNHAGLKLNEWEKLVTSIMDMPISRE | 2 | 
